Measurements as given in PMC10324392, “Enabling Peptide Ligation at Aromatic Junction Mimics via Native Chemical Ligation and Palladium-Mediated S-Arylation”.

B1: biotinylated E-box DNA probe (BLI) (dsDNA)
DNA 1: CCGGCTGACACGTGGTATTAAT
DNA 2: ATTAATACCACGTGTCAGCCGG
B2: E-box DNA probe (22 bp) (dsDNA)
DNA 1: CCGGCTGACACGTGGTATTAAT
DNA 2: ATTAATACCACGTGTCAGCCGG

What was measured:
[1] = target: Max DNA-binding domain (synthetic, S-arylated) (UniProt P61244, F43C, then Cys43 S-arylated with Pd-1 to a Phe mimic); assay: BLI; EMSA: 10 mM MES, 150 mM KCl, 1 mM MgCl2, 10% glycerol, room temperature 1 h, 10% TBE gel, pH not given; BLI: 1x PBS, 0.1% BSA, 0.02% Tween-20, streptavidin sensors, temperature not given; details: chain copies: 2; (22 bp, only one strand printed)
[2] = target: Max DNA-binding domain (synthetic, S-arylated);Myc DNA-binding domain (synthetic, S-arylated) (;, UniProt P61244;P01106 ;, F43C, then Cys43 S-arylated with Pd-1 to a Phe mimic|Y402C, then Cys402 …); assay: EMSA; equimolar Myc and Max; 1 uM DNA; 0, 4, 8 uM protein; EMSA: 10 mM MES, 150 mM KCl, 1 mM MgCl2, 10% glycerol, room temperature 1 h, 10% TBE gel, pH not given; BLI: 1x PBS, 0.1% BSA, 0.02% Tween-20, streptavidin sensors, temperature not given; details: tags: ;; copies: 1;1; (22 bp, only one strand printed)
Max DNA-binding domain (synthetic, S-arylated);Myc DNA-binding domain (synthetic, S-arylated), sequence (P61244 22-102, stated change not applied, chain 1 of 2): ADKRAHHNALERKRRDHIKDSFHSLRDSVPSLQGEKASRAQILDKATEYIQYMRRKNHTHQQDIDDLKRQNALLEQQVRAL
Max DNA-binding domain (synthetic, S-arylated);Myc DNA-binding domain (synthetic, S-arylated), sequence (P01106 369-449, stated change not applied, chain 2 of 2): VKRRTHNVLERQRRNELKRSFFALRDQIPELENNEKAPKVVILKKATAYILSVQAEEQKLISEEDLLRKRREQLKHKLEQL

Max DNA-binding domain (synthetic, S-arylated), sequence (P61244 22-102 F43C): as the sequence (P61244 22-102, stated change not applied, chain 1 of 2) above, with F22C counted along it

Binder	Kd [1] [nM]	binding result [2]
B1	14.8 ± 0.2	
B2		binds
